# Laboratory results taken from CN108101970A.
# Molecular target: 抗Cry1Ab单克隆抗体
# Assay: indirect competitive ELISA (chemiluminescence), anti-Cry1Ab mAb coated at 10 μg/mL; competitor: Cry1Ab mimic nanobody (phage 1.0×10^11 pfu or protein 10 μg/mL)
substance,measurement,value
Cry1Ab标准品 (from UniProt P0A370 29-607),IC50,0.0427 µg/mL
